The target in the data set is Irr (iron response regulator) (Brucella melitensis M5-90, UniProt Q842L5 1-145). The data set can be described thus: EMSA. As to conditions: protein: ivt; tags: Halo (pDAP-Halo-Kan vector); chain copies: 2; label: biotin; blunt. In general terms: Mobility shift assays separate free from complexed probe on a gel.

We go through five molecules from article PMC10374146.

B1: BME_RS01725 (membrane protein) (dsDNA)
DNA 1: GCATATTTTAGAATTATTCTAAATT
DNA 2: AATTTAGAATAATTCTAAAATATGC
As for B1, the binding result is reported as “binds”.

B2: BME_RS10660 (zntA) (dsDNA)
DNA 1: TCAGGCAAGCTTCATGCCCATATCC
DNA 2: GGATATGGGCATGAAGCTTGCCTGA
In the case of B2, the binding result is given as “binds”.

B3: BME_RS14525 (ftrA) (dsDNA)
DNA 1: CTTAATGAAAAATCTATTCAG
DNA 2: CTGAATAGATTTTTCATTAAG
As for B3, the binding result is “binds”.

B4: BME_RS09560 (hypothetical protein) (dsDNA)
DNA 1: ATGTTATAGAGCGATTCTGGTT
DNA 2: AACCAGAATCGCTCTATAACAT
Take B4: the binding result was “binds”.

B5: BME_RS13655 (2Fe-2S binding protein) (dsDNA)
DNA 1: CGGTTTATTTTGTTTTTTTAGTTTC
DNA 2: GAAACTAAAAAAACAAAATAAACCG
For the molecule B5, the binding result is “binds”.
